Source: the supplement of paper PMC11865577

test system: TO-3-N3-2 (biotin conjugate); assay: pull-down binding Z-score (relative to library population); higher = stronger binding; details: RNA library: Library-2
How it was run: (§1)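 Streptavidin beads bearing 100 pmol of a biotin-conjugated small molecule were incubated for 60 min at 25 °C with 1 μg of heat-folded, Cy5- or Cy3-end-labelled RNA library in phosphate/NaCl/KCl buffer. Hot SDS eluted the RNA that stayed bound after three washes, and this RNA was hybridised for 20 h at 55.5 °C to a DNA barcode microarray. Binding was expressed as a Z-score against the library mean and standard deviation, after subtraction of a beads-only signal and trimmed averaging of barcoded replicate probes.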

Sequence	pull-down binding Z-score
AGUUUCUGGAAUGUCAGAACUUCCAGAAACU [hsa-mir-3199-2]	0.034
AGUUUGUGAUAAUGUUUGUCUAUAUAGUUAUGAAUG [hsa-mir-4307]	-0.174
AUAAUACGGAUUACGUUGUUA [hsa-mir-137]	-0.139
AUACUGGAGCAAUAGAUACAGUU [hsa-mir-3692]	-0.389
AUAGAACAUUGACAUCAACACUAG [hsa-mir-4278]	-0.0605
AUAGCACAAAGUCUUAUGGUACUGU [hsa-mir-3169]	0.253
AUAGUUGAGGAGGACACCCAAGGAGAUCACUAU [hsa-let-7e]	0.863
AUAGUUGUGGGGUAGUGAUUUUACCCUGUUCAGGAGAUAACUAU [hsa-let-7f-1]	0.657
AUAGUUUAGAAUUACAUCAAGGGAGAUAACUGU [hsa-let-7a-2]	0.285
AUAGUUUGGGGCUCUGCCCUGCUAUGGGAUAACUAU [hsa-let-7a-3]	-0.115
AUAGUUUUAGGGCAGGGAUUUUGCCCACAAGGAGGUAACUAU [hsa-let-7d]	0.589
AUAGUUUUAGGGUCACACCCACCACUGGGAGAUAACUAU [hsa-let-7a-1]	0.205
AUAGUUUUAGGGUCAUACCCCAUCUUGGAGAUAACUAU [hsa-let-7f-2]	0.00457
AUAUAAAAUGCAAUUA [hsa-mir-3945]	0.327
AUAUAAGGGAAGGCAUUAUAG [hsa-mir-3117]	0.0974
AUAUAGAUAUCAGCUACCUAUAU [hsa-mir-3144]	-0.329

test system: TO-N3 (biotin conjugate); assay: as above; details: RNA library: Library-2
How it was run: as §1

Sequence	pull-down binding Z-score
AGUGGAAAAAGUUCUUUUCUUCCUCU [hsa-mir-3192]	0.0678
AGUGGACGAGUCUCAUUA [hsa-mir-3193]	0.678
AGUGGCCAAUUCCU [hsa-mir-4251]	-0.607
AGUGGUGCAAUCUCAGUUCACU [hsa-mir-3135a]	-0.0142
AGUGUGCAGUCAUCCACACA [hsa-mir-4731]	-0.519
AGUGUUGUUUUUUCCCCCGCCAAUAUU [hsa-mir-92b]	-0.16
AGUUACACAGCUCACGAGUGCCU [hsa-mir-370]	0.113
AGUUAGAAUUCUUAAGUAUCAAAACUAAAU [hsa-mir-4760]	0.106
AGUUCAGGAGGUGGCACUGCUGUGUGUGAGCU [hsa-mir-6876]	0.97
AGUUCCUGAUUAAGAAAUGGAAUU [hsa-mir-4699]	-0.814
AGUUCGCUUUUAUUAAUGACGAAUA [hsa-mir-410]	-0.628
AGUUGAACACUUGUUGGGACAACCU [hsa-mir-4421]	0.971
AGUUGGACACUCCAUGUGGUAGAGUGUC [hsa-mir-223]	0.563
AGUUGUGAAUUCUCAAAACACCU [hsa-mir-660]	-0.417
AGUUUCUGGAAGUUCUGACAUUCCAGAAACU [hsa-mir-3199-1]	-1.1
AGUUUCUGGAAUGUCAGAACUUCCAGAAACU [hsa-mir-3199-2]	0.392

Sequence	pull-down binding Z-score
AGUUUGUGAUAAUGUUUGUCUAUAUAGUUAUGAAUG [hsa-mir-4307]	-0.633
AUAAUACGGAUUACGUUGUUA [hsa-mir-137]	0.148
AUACUGGAGCAAUAGAUACAGUU [hsa-mir-3692]	-0.663
AUAGAACAUUGACAUCAACACUAG [hsa-mir-4278]	-0.204
AUAGCACAAAGUCUUAUGGUACUGU [hsa-mir-3169]	0.199
AUAGUUGAGGAGGACACCCAAGGAGAUCACUAU [hsa-let-7e]	0.871
AUAGUUGUGGGGUAGUGAUUUUACCCUGUUCAGGAGAUAACUAU [hsa-let-7f-1]	0.842
AUAGUUUAGAAUUACAUCAAGGGAGAUAACUGU [hsa-let-7a-2]	-0.695
AUAGUUUGGGGCUCUGCCCUGCUAUGGGAUAACUAU [hsa-let-7a-3]	-0.227
AUAGUUUUAGGGCAGGGAUUUUGCCCACAAGGAGGUAACUAU [hsa-let-7d]	0.112
AUAGUUUUAGGGUCACACCCACCACUGGGAGAUAACUAU [hsa-let-7a-1]	0.607
AUAGUUUUAGGGUCAUACCCCAUCUUGGAGAUAACUAU [hsa-let-7f-2]	-0.497
AUAUAAAAUGCAAUUA [hsa-mir-3945]	0.0171
AUAUAAGGGAAGGCAUUAUAG [hsa-mir-3117]	0.0219
AUAUAGAUAUCAGCUACCUAUAU [hsa-mir-3144]	-1.06

test system: TO-N3-2 (biotin conjugate); assay: as above; details: RNA library: Library-2
How it was run: as §1

Sequence	pull-down binding Z-score
AGUGGAAAAAGUUCUUUUCUUCCUCU [hsa-mir-3192]	-0.263
AGUGGACGAGUCUCAUUA [hsa-mir-3193]	0.613
AGUGGCCAAUUCCU [hsa-mir-4251]	-0.274
AGUGGUGCAAUCUCAGUUCACU [hsa-mir-3135a]	-0.196
AGUGUGCAGUCAUCCACACA [hsa-mir-4731]	-0.401
AGUGUUGUUUUUUCCCCCGCCAAUAUU [hsa-mir-92b]	0.0118
AGUUACACAGCUCACGAGUGCCU [hsa-mir-370]	0.694
AGUUAGAAUUCUUAAGUAUCAAAACUAAAU [hsa-mir-4760]	-0.12
AGUUCAGGAGGUGGCACUGCUGUGUGUGAGCU [hsa-mir-6876]	1.27
AGUUCCUGAUUAAGAAAUGGAAUU [hsa-mir-4699]	-1
AGUUCGCUUUUAUUAAUGACGAAUA [hsa-mir-410]	-0.121
AGUUGAACACUUGUUGGGACAACCU [hsa-mir-4421]	0.711
AGUUGGACACUCCAUGUGGUAGAGUGUC [hsa-mir-223]	0.0461
AGUUGUGAAUUCUCAAAACACCU [hsa-mir-660]	-0.129
AGUUUCUGGAAGUUCUGACAUUCCAGAAACU [hsa-mir-3199-1]	-0.95
AGUUUCUGGAAUGUCAGAACUUCCAGAAACU [hsa-mir-3199-2]	-0.865

Sequence	pull-down binding Z-score
AGUUUGUGAUAAUGUUUGUCUAUAUAGUUAUGAAUG [hsa-mir-4307]	-0.531
AUAAUACGGAUUACGUUGUUA [hsa-mir-137]	-0.0367
AUACUGGAGCAAUAGAUACAGUU [hsa-mir-3692]	-0.353
AUAGAACAUUGACAUCAACACUAG [hsa-mir-4278]	-0.508
AUAGCACAAAGUCUUAUGGUACUGU [hsa-mir-3169]	-0.178
AUAGUUGAGGAGGACACCCAAGGAGAUCACUAU [hsa-let-7e]	1.26
AUAGUUGUGGGGUAGUGAUUUUACCCUGUUCAGGAGAUAACUAU [hsa-let-7f-1]	0.224
AUAGUUUAGAAUUACAUCAAGGGAGAUAACUGU [hsa-let-7a-2]	-0.163
AUAGUUUGGGGCUCUGCCCUGCUAUGGGAUAACUAU [hsa-let-7a-3]	0.141
AUAGUUUUAGGGCAGGGAUUUUGCCCACAAGGAGGUAACUAU [hsa-let-7d]	0.203
AUAGUUUUAGGGUCACACCCACCACUGGGAGAUAACUAU [hsa-let-7a-1]	-0.0919
AUAGUUUUAGGGUCAUACCCCAUCUUGGAGAUAACUAU [hsa-let-7f-2]	-0.745
AUAUAAAAUGCAAUUA [hsa-mir-3945]	-0.448
AUAUAAGGGAAGGCAUUAUAG [hsa-mir-3117]	-0.234
AUAUAGAUAUCAGCUACCUAUAU [hsa-mir-3144]	-1.38
